Assay results taken from the DeepSol protein solubility set.

experiment: soluble on expression in E. coli; label from the status in PepcDB or PDB records

Soluble on expression in E. coli, soluble:
MSLSAHEIRELFLSFFEKKGHTRVKSAPLVPENDPTLLFVNAGMVPFKNVFLGLEKRPYKRATSCQKCLRVSGKHNDLEQVGYTSRHHTFFEMLGNFSFGDYFKKEAIEYAWEFVTEVLKLPKEKLYVSVYKDDEEAYRIWNEHIGIPSERIWRLGEEDNFWQMGDVGPCGPSSEIYVDRGEEYEGDERYLEIWNLVFMQYNRDENGVLTPLPHPNIDTGMGLERIASVLQGKNSNFEIDIIFPLIQFGEEVSGKKYGEKFETDVALRVIADHLRAITFAISDGVIPSNEGRGYVIRRILRRAMRFGYKLGIENPFLYKGVDLVVDIMKEPYPELELSREFVKGIVKGEEKRFIKTLKAGMEYIQEVIQKALEEGRKTLSGKEVFTAYDTYGFPVDLIDEIAREKGLGIDLEGFQCELEEQRERARKHFKVEAKKVKPVYSHLKELGKTSAFVGAAALEHHHHHH
SMVFDSESNLDRFLRCTTPIVPAYSLPKTQIKNLNPLWYPLESQSVEYFRLGDFWDCFDEWSAYGAGVPIVSETGETLVQYYVPYLSAIQIFTSHSVINTLREETESGDSGSESCSEEWRWEGCSSSEEGFDHQEPLDRLGYSYLQYFERCTPYSRVPLMDKIKELGERYVGLRSLRSVDLSPASWMAVAWYPIYHIPMNRSIKDLSTCFLTYHTLSSSFQDVKREEEKERISVSAFGMATYKMQGRLWDNDRLLCFLSVADSWLKQLRVHHHDFTYFTTTTHYL
MIDVRKYIDNAALKPHLSEKEIEEFVLKSEELGIYAVCVNPYHVKLASSIAKKVKVCCVIGFPLGLNKTSVKVKEAVEAVRDGAQELDIVWNLSAFKSEKYDFVVEELKEIFRETPSAVHKVIVETPYLNEEEIKKAVEICIEAGADFIKTSTGFAPRGTTLEEVRLIKSSAKGRIKVKASGGIRDLETAISMIEAGADRIGTSSGISIAEEFLKRHLILEHHHHHH
MINVLIIDDDAMVAELNRRYVAQIPGFQCCGTASTLEKAKEIIFNSDTPIDLILLDIYMQKENGLDLLPVLHNARCKSDVIVISSAADAATIKDSLHYGVVDYLIKPFQASRFEEALTGWRQKKMALEKHQYYDQAELDQLIHGSSSNEQDPRRLPKGLTPQTLRTLCQWIDAHQDYEFSTDELANEVNISRVSCRKYLIWLVNCHILFTSIHYGVTGRPVYRYRIQAEHYSLLKQYCQ
NLYFQGHMVLKLLLELGAERYAEQFAAKCHELGMVMKESAGPGRVPVPVTLQPSMISRGEFGTLCCMQPLWNEAVDNTARNFTFLRDALQETAASDVNFTGKLLNMLQEVYLSGGPFQQLMLGIFRTDYMREGVYDKMLSTTASRWKNVEINTISCSFAGLSPLITEFHQHIAAYLQVLQKARGKEDDDGVENMSWIWGKGNCRLERSVSGDVVPKAIADAVRAWVEQQKFASLRASWEQFQQNEVGSGEIHQLGVLDTAPVVLVVVQENERNTADQYALLMRVLEEHRIRFIFRTLQELHLSLKLHSISPEQPPLAVVDGHYPIAVAYFRSTYVPEDFPTDATWAARLSLERSSAIKCPSIPYHLLTFKKLQQLLCDVDRVLVPVAFCGDSDKAGLLQRHFVPQYSLNPKEVGEEAVEKVIHDVLQRPDQFVLKPQLEGGGNLLSGETMVKALKATKEGDPVTYSKVRCEYVVMSRIQFHVSTGSLLARGDVVQLERNMCSEVGIFGVILSAAKGSSVGTNGSSVLFNTFAGYTVRSKPADADDGGVMAGVAALDSLAVVP
MAHHHHHHMQQQPRPVVAQYAYIELLPLRYTGPAPPPAPACMDPTPDEQYRRGVAEKRAALKQKEARRQMSSSGSGMLASLKSAVSQAVMTMEKGAADVSTRTESQVRQLEYQYDCDRFNLHFHELAENGEVLLADYRCSAMHSGLRVNGHVQITPHYLCFLAETTSSIAKTTDAVMGVFVAARHPTSANDEPRNRPVGIKQVIALADIVSIQPSVVLESI
MKNKTKNATLKSIIDVILYENPSTQDEIAERLGITRRYVTKLLQPLIREGVVRRAYIVDIKKFDEFPELFGEEVTSREYAGSFFIKEILRDMAQHVCKQLNKSFRSLEEYDEDLANEALKMDYITNTMHEKVRSSVDTAIAMNPYSEFSKTMAFTEIAYDLERIGDHSAIIANFAIKESYEVDPAMMEYLRDMFSIAVEMVKTAMDAFLNEKLELKATLMSLEDDIHRIQKNALNCVATQMAETPFEDKERSTYYISLSRVVKTLERIADISIEIFDTAGEYYRNIPRTTTPERFRRREREES
MRTQWPSPAKLNLFLYITGQRADGYHTLQTLFQFLDYGDTISIELRDDGDIRLLTPVEGVEHEDNLIVRAARLLMKTAADSGRLPTGSGANISIDKRLPMGGGLGGGSSNAATVLVALNHLWQCGLSMDELAEMGLTLGADVPVFVRGHAAFAEGVGEILTPVDPPEKWYLVAHPGVSIPTPVIFKDPELPRNTPKRSIETLLKCEFSNDCEVIARKRFREVDAVLSWLLEYAPSRLTGTGACVFAEFDTESEARQVLEQAPEWLNGFVAKGVNLSPLHRAML
CEVDALKGTNESLERQMREMEENFAVEAANYQDTIGRLQDEIQNMKEEMARHLREYQDLLNVKMALDIEIATYRKLLEGEESRI
MMEMITIKPGKITVQANPNMPKEVAELFRKQHYEIVGRHSGVKLCHWLKKSLTEGRFCYKQKFYGIHSHRCLQMTPVLAWCTHNCIFCWRPMENFLGTELPQPWDDPAFIVEESIKAQRKLLIGYKGNPKVDKKKFEEAWNPTHAAISLSGEPMLYPYMGDLVEEFHKRGFTTFIVTNGTIPERLEEMIKEDKLPTQLYVSITAPDIETYNSVNIPMIPDGWERILRFLELMRDLPTRTVVRLTLVKGENMHSPEKYAKLILKARPMFVEAKAYMFVGYSRNRLTINNMPSHQDIREFAEALVKHLPGYHIEDEYEPSRVVLIMRDDVDPQGTGVEGRFIKH
KQQLTEDGDSFLHLAIIHEEKALTMEVIRQVKGDLAFLNFQNNLQQTPLHLAVITNQPEIAEALLGAGCDPELRDFRGNTPLHLACEQGCLASVGVLTQSCTTPHLHSILKATNYNGHTCLHLASIHGYLGIVELLVSLGADVNAQEPCNGRTALHLAVDLQNPDLVSLLLKCGADVNRVTYQGYSPYQLTWGRPSTRIQQQLGQLTLENLQMLPESEDEESYDTESEFTEFTEDE
MSLTETILSVGIDLGTSTTQLILSELEIQNMASSFTVPRIVISDKRIIFRSEILFTPILADNLIDVEAIRDFVTKEYANAGIKKEEIGMGAVIITGETARKDNASNVLDAMSGFAGDFVVATAGPDLESIIAGKGAGAHTYAKENNTSVVNLDIGGGTTNLSLFDRGELIDTACLDIGGRLIKVDRETRKITYIAPKIQALIEKRGYPVKLGETTSPENLQPVLGEMVELLKNSVGLGAPNDFYKTIITNKGLKFLTEIECISFSGGVADCISTGALSDPFRYGDIGLLLGKAIAESSLMTEKKYIESVETIRATVVGAGSHTAEISGSTITYTEKIFPVKNIPILKLAKQEEDENMAEVIKEKLSWFKIENEMEHIALAIEGENSPSFQQVTEYAKAICEGMKEPIALGHPLIIITWHDMAKALGQSIFGHLPAGHPLICLDSVKVDNGDYIDIGKPVADGKVLPVVVKTLVFNEGHHHHHH
MDIEERINLVLKKPTEEVLTVENLRHLFEIGAPLQHYIGFEISGYIHLGTGLMAGAKIADFQKAGIKTRVFLADWHSWINDKLGGDLEVIQEVALKYFKVGMEKSIEVMGGDPKKVEFVLASEILEKGDYWQTVIDISKNVTLSRVMRSITIMGRQMGEAIDFAKLIYPMMQVADIFYQGVTIAHAGMDQRKAHVIAIEVAQKLRYHPIVHEGEKLKPVAVHHHLLLGLQEPPKWPIESEEEFKEIKAQMKMSKSKPYSAVFIHDSPEEIRQKLRKAFCPAREVRYNPVLDWVEYIIFREEPTEFTVHRPAKFGGDVTYTTFEELKRDFAEGKLHPLDLKNAVAEYLINLLEPIRRYFEKHPEPLELMRSVKITR

Soluble on expression in E. coli, not soluble:
MGSDKIHHHHHHMTYPVVLVNVSRNTNAISFPMGLSVVANALLHHDITPQIIDLIPVMPDQRIDYFLRTMPKEPAIYGFSMMIGNFHLDHAEHYARLIKEHSPDSIVVYGGSLPSSVPELLVENCECDFVIHGEGEVVFPAFVKALREGESFPEGPGIFYKGADGQVVGTKAKRMRRLDHLSRQNYSLFDMDFYSGYFKEVGLSWEIMASRGCKAHCSFCYKFMGDGIGLREVGEVLDEIQYIMENYGITKFYFVDENFMQIKKYFYSFLEEKKNRGLNFTFIASSRIDEIDEERISIAKEHGLTALTTGVESVNQATLNAIDKRIDIEDAERAVKLLRQYGIRPHVNLIIGFEWESEDDYKAMLEFIERNDLRGTVKLSYLTPLPATRLYEDAKSRNKLGKPEFEYVRTLGNLYWELMVNMTNMPDELLKHYYALISDVGKETRALPVTPAYRQNLNDDLVMYKTVAAPSPPPAHAAWSLP
MGSDKIHHHHHHVPEQHICTYEYRLANPNPRPIVGRFQLNFTLDVNGCESGTPVLYLEHVQVHATVRYLKRGDLKLTLFSPSGTRSVLLPPRPQDFNANGFHKWPFLSVQQWGEDPRGTWLLMVESVTTNPAATGTFHDWTLLLYGTADPAQSGDPVYSATPATSQGVLSRVHQLTSQILITIAIHLVVNA
MNLRPVIVGGGSAGMAAAIELARRGVPCVLFDEASRPGGVVYRGPLRAGVDPAYLGARYTRMLEKLRRDFSACAGHIDLRLNSRVVGGDGQRLMVLDEAERLHEVEYSHLLLATGCHERSVPFPGWTLPGVMLLGGLQLQIKSGVVKPLGDTLIAGSGPLLPLVACQLHAAGVRVAGVYEACAFGRMARESLALLNKPQLFLDGLSMLGYLKLNGIPLHYGWGVVEASGDGELTEVTVAPYDEEWRPDLENARPVKASTLAVGYGFIPRTQLSQQLGLEHGFSDDGYLRAECNVWQQSSQPHIHLAGDMAGIRGGEAAMIGGRIAALSILLQREAIAPAEAIERRESHLARLEAIKRFRAGVERYTQRGARQVELARADTVICRCEQVTRGDIERALEQGVQDIAGLKMRTRAGMGDCQGRMCIGYCSDRLRRATGRHDVGWLRPRFPIDPIPFSAFQNLGTEALEHHHHHH
MNSIRSSPAIGENRTVYIGSYDGKLYAFNPDGTLKWSYTTGNQITGSATIGADGTICIGSYDRRLYTINPDGTLKWSYTTGNQIFSSAAIGEDGTIYVGSRDNKLYALNPDGTLKWSYTTGNQIFSSAAIGEDLEHHHHHH
MSLEKLKSTEFYASQIKHCFTIPSRTAKYKGLCFELAPEVYQGMEHENFYSHQADAINSLHQGENVIITTSTSSGKSLIYQLAAIDLLLKDPESTFMYIFPTKALAQDQKRAFKVILSKIPELKNAVVDTYDGDTEPEERAYIRKNARVIFTNPDMIHTSILPNHANWRHFLYHLKLVVVDELHIYKGLFGSHVALVMRRLLRLCHCFYENSGLQFISCSATLKSPVQHMKDMFGINEVTLIHEDGSPTGAKHLVVWNPPILPQHERKRENFIRESAKILVQLILNNVRTIAFCYVRRVCELLMKEVRNIFIETGREDLVTEVMSYRGGYSASDRRKIEREMFHGNLKAVISTNALELGIDIGGLDAVLMCGFPLSMANFHQQSGRAGRRNNDSLTLVVASDSPVDQHYVAHPESLLEVNNFESYQDLVLDEGHHHHHH
